The nature of this data set: soluble fraction after stress (log2 fold change); higher = more stays soluble; pooled small domains, quantitative proteomics. Particulars: stress: 50 degC. The method, boiled down:
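The measure of aggregation propensity here is the base-two logarithm of the fold change in the soluble amount of each protein after stress. A higher value means more of that protein stays in solution. Stress was applied at 50°C to pooled libraries of small protein domains, read out by high-throughput quantitative proteomics.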

Regarding “HMEALPELTDRQRQVYEFIEARIAEWGYPPTIREIGQHLGIKSTNGVADHLKALKRKGYLQQ”, the “soluble fraction (log2)” value is -0.0721.

Consider “HMDKENVLQLQKDLLRLSVNALEKRYYQFSDILLLKYILPLVPKEISIDDQSRLRSLLSGIN”, for which the “soluble fraction (log2)” value is -0.238. With “HMPTPLTPREHEIANLIAQGLSNREIADELVISPATAARHVANILAKLGFSSRTQVASWATRHD”, the “soluble fraction (log2)” value was -0.179. Turning to “HMNDRLAGMEGQRGEAATNFDQGEGKVKVGDTVWLAKQSDSTVIVEGDQIVVTGSENGLLKVRL”, the “soluble fraction (log2)” value was -0.165. As to “HMRNEFEAHSDGTRIQLNDRSKATFSVYDVQGRLIHSFQDFSGSSFNIEPKNQLLIITRETAEGVSVKKLV”, the “soluble fraction (log2)” value was 0.0942. As for “HMDLQAAWLQTVRHLLAHTEDVGDRFAEEARRIHYGEEPHRGIRGQATPEERLALREEGIETMSIPV”, the “soluble fraction (log2)” value is -0.631. The same measure for “HMRDIGKNIRYYREKKGYSQEQLAQLLFVTRQTVSNYETSRSRPDVETLVKLAGLLDIDVTDLIYGPR”: -0.651; for “HMTVVHRQVHLQPDQGAFRAALYSHKAVLSEQTDDQGAINLEIRLPESDFLRLLNSSGLKLQDLVP”: -0.0198; for “HMKNSMANVQARREKILSAVDQSEPVAVEGLAQRFNVSITTLRRDLKALSDMGQVKWHHGLVERT”: -0.173. In the case of “HMAEPYDERKVMEQMIPKGKNTIVAHLGHLKDHGETGYLQEALSYLRERESELGFDLKEVRALVHN”, the “soluble fraction (log2)” value is 0.251. Consider “HMRELSDFEKLLFTTTLERKMINLAMLLTRSNKADSKDLIQDSYLKAIENQVQFNGNNIDAWVITILKNTF”, for which the “soluble fraction (log2)” value came to 0.139. As to “HMNKSGVVLIRVTVDASGRVTSAAYEPKGSTTSDVELVAEARKAALRTRFTESRTVIEGGVITYIFKL”, the “soluble fraction (log2)” value was -2.28. Turning to “HMNEAVVVPDVKGLTLDEADEFFKNSKLRYNVVDSVFSKDVAPGAIVELVPVAGSKVKENRIVFVTINAQ”, the “soluble fraction (log2)” value is -0.17.

In the case of “HMYRWSEEIFEKLRSDIMAALDLSREQNDEEIYRFIETEVEEYSQNNLLTLKEREQLEHLLFNSL”, the “soluble fraction (log2)” value was -1.3. For “HMFNDGEIAIYTDPRGDAGETQIWKRGKGYYGQNDSFDFEAKDKKELEMKLKRWGYVLIAGSIDE”, the “soluble fraction (log2)” value is -0.291. For “HMHPTDMKLTARLEEGAQFVRTQQLSKAIEIFTEVIKLDQNWAEAWNKRATVFYMMGKFKQSQEDIDKVLA”, the “soluble fraction (log2)” value was -0.0571. Next, “HMGQISDDGALKKLASEVLAANPQALADWKAGKQQAVSFLVGQAMKASKGRGDAALLGELIRAALD”: 0.0134; “HMGEWHQMLRSWGETELKNGRQNILDEAVPAFERAMIETALAHTSGRKKDAALLLGWGRNTLTRKLQEHSI”: -0.0702; “HMRAMWENLFFQYKEGFLPEEYYKQGIATGIRLAGPKFVEMNIPMQKEFEDEVHRLLAEHEKSVK”: -0.748.

As to “HMRRSSQQLTLTEVSTIKEMVTSEEYRHVPTGTLALLAQRLRKVFASSSTWYRLVRIYKWRRPRGRIH”, the “soluble fraction (log2)” value worked out at 0.549. In the case of “HMENYQIETFVKFIEESTGEDGVAFEDLFQNFTSRPAVITMFLALLEALRRNSIRIFQKEEFSQILIYPK”, the “soluble fraction (log2)” value is 0.084.

For “HMKHVDLDNNERYIYGIIGSTKIHVDEVVEKSGMETKHVMAILTNLELKEAIKGIPGGFYLR”, the “soluble fraction (log2)” value was -0.506. For the sequence “HMPKLVGEVMQTLDALRREKGLSLLLVEQNARAALGVVDRVYVLERGRVVFEGSAKEAMEDQDVMEFYLG”, the “soluble fraction (log2)” value amounted to 0.0385. As to “HMVFSNLGSRGEEVRQIQTKLKELGYLQGNVDGIYGNQTKQAVTAFQRDHGLSADGIAGEKTLAALGIG”, the “soluble fraction (log2)” value was 0.315. The same measure for “HMSAEDYMEMIYRLSQENGFTRVNDLASALNVQPPSVTRMIQKLAELNLIKYEKYGVIMLQPYGIEVGRSL”: -1.91; for “HMEGTEVTTEPPGAQIEFDGKQFGPTPTRVPGLAAGKQFRITLAGYQEAKPKLKNNPKEGEPLSFTLTAI”: 0.406.

Take “HMKHTQTDEGELLSTLRTLFPNSSSSSLRKMLTQGRILVNQEVVHRAKHALQAGDEIEVLARQ”: the “soluble fraction (log2)” value is -0.122. “HMDEFEEGVITYFNSEKGFGFIRESKTKQSVFVHSKQLSSPVQLNDKVKFIVNKGLKGLEATEVSVI”: the “soluble fraction (log2)” value is -0.235.

As for “HMGGNVYAYRLTASVKSGEQIPANKIEKVKMLSSDLPTNYVPDTVNVTAYKSKLDLQAGTILSTSLLYEN”, the “soluble fraction (log2)” value was 0.0242. Take “HMAWIAVATKEDYSEYEWKELSPTTDWSTQTFDLGDLAGKTIYAVKMFFDHDTDVKDYKFNLGQLSITSN”: the “soluble fraction (log2)” value was -0.266.

In the case of “HMASLIGEEKALQIALEHAGVALENVAYSQVKLENDDGRWEYDTEFYSGSKEYDYEIDASTGEILGYDHD”, the “soluble fraction (log2)” value was -0.0337. As to “HMTKDVIEIVDGNKFVFHKTIATDSVSSVINKYHISEADFRTWNELTGDMKVGEEYIVQLSLH”, the “soluble fraction (log2)” value was -1.26. The same measure for “HMNDPIESLTPREREVLTLMAEGRTNAAIAAQLVVTEGAVEKHTQHIFAKLGLLPDSAVHRRVKAVLALLS”: -1.75; for “HMVDIEQAEFLSRQFDLLLARLDDPTIEWQDIADIRSEYTGENEHRDTIRKGSKLFYEYLQAGWIKN”: -0.748. With “HMEDELVMERFDINELVKSVVNANELRATQKNLSITYDILDTPLYVWADEYKVEEVVTNYLS”, the “soluble fraction (log2)” value was -0.143. For the sequence “HMLRPMVAILNKNISKGQVISEDYIKFEVRPERQIHGAYHDISEVLGRKTKNNIAAGTILKVRHLDT”, the “soluble fraction (log2)” value was -0.201. Turning to “HMGSVNDNVQKLTSQIGETTETGDTITPEDVELYKKMVDPLSTMAQKLEAAEILKLKGIIGSNGIIV”, the “soluble fraction (log2)” value was -0.0442. For “HMASPRVWKDASSGRTLTGEFVELTKDAVKVRRANGDVVSLPLSRLTEEDITFAKGASETGGA”, the “soluble fraction (log2)” value worked out at 0.146.

“HMLPLLEYLDPFTGKKTYTYLNPDTQHPIFTYYSYQDDKTGRTAYSYIDPLTGKAVNSDEPPMDILYD”: the “soluble fraction (log2)” value is -0.441. Turning to “HMVVRKHDRYYTPEHRKLLMDTYERTNKYPTKQDMSELAKIIGVLPIKILWWYTHRRRQDRRKGEESSSP”, the “soluble fraction (log2)” value was -0.0096.

Take “HMRVGISRNSGAAGIAVWLTQKLGRPVAKTEEIVHILKNWVDDQYEAGRVTNIGDGELWSVYKQMEAEE”: the “soluble fraction (log2)” value was -0.359. Next, “HMQNKFLDIVGEIEVKAVDYYLLKDTSGLVIKFPKNLVFANGLKIADNKIGLTVSLYGAWVHEET”: -1.17; “HMVSLEEIINDLTSRIQTAVKMRFSDFVQNRKERVGVIVSFLGMLELVKQGIIDIKQEGHFADIEMETA”: -0.296; “HMLKHSKQRDAIEQFLATRYDHPTAETVYMNLREEYPKLSLATVYRNLSLLAELGNIQKIPTGNGPDRFDG”: -0.555.

Turning to “HMNSEELFLRRIAQELIDQHGKDLHRIIVVLPSNRSKVFLKKFLFEILGSAFLTPQLMLLPQFVKSIV”, the “soluble fraction (log2)” value is -0.282.

With “HMQIDDSVELSAIVEKLLAANPEQVEQLKNGKTKVLGYFVGLAMKETQGRANPQKVNELIQTHL”, the “soluble fraction (log2)” value is -0.174. For the sequence “HMNNTIKFSVDSQNSGKRLDIFLTENIKNYTRSFLKKLIENRQVKLNNNFIISPSERVKFKDQININILQ”, the “soluble fraction (log2)” value is -1.17.

On to “HMQIIEVPYSEFLKKLESGQISEVSRDSYQIVFTDRSQPPIIYKTGLMEDPGLVDKMQEAGVTFTSP”, for which the “soluble fraction (log2)” value was determined as 0.12. Next, “HMSMHVHTPNPDFKPSNTNALQEGQLVEHPKFGFGKVQKIETEGLNKKASIQFEHFGEKTLLLSFAKLRII”: 0.0178; “HMDNVLGKSGKVIFVNEEINSYGRAFIPGHGEWNIRTKSDQNIHINDGIKVIERDGITLVVEL”: -1.14. In the case of “HMEGAEDMNRALALAFLRDNSRSTVAQLAEHLGSSKRSAERLVAQLKDEGVLERQGSPRAGLWIVHI”, the “soluble fraction (log2)” value is -0.0818. For the sequence “HMQGTTTELLIQKSALYEELNDPEKALNAMFDAFEMDSLNVNVLHRIVSLLLDKEENEKAILYNQLIIDH”, the “soluble fraction (log2)” value came out at 0.126. Next, “HMRPHDDHLREQLLGIATETIARTGVEGLSLRTLATDAGTSTSAVYQLFGSRAALLDAVYLRVLE”: -1.26; “HMKLRKINLIGIFGSKTAPSALVRLTNGRVLKVGLGELLDGGRVTAIGRSSLTYNKSGKSITLNMPI”: -2.73; “HMTVPNVVGQRILAAQDILKNLGLKVLVDTNLPNSQWGLRNVKSTNPGAGAVVRVGDTVTLIAR”: 0.0114. Regarding “HMKYEFEFPYWSNKEAKHMIVTINYPNGTRATASIQDNDGSNPDYKRIMEEFGEEQIDANTEEGLKRR”, the “soluble fraction (log2)” value was -0.0595. Next, “HMEVTENQEKHAYQEAMDQALRFLAPRFLSRAELTRKLLQKEHDRDVIDAVIDRLEELDYVDDAR”: 0.0309.

As for “HMEETLEELGKEYESAFTMYEKLWSYYKKQNYHQVNHKRSERYEILLGFVREYHPEKVEYYRELL”, the “soluble fraction (log2)” value is 0.0169. For the sequence “HMRFDADELQKAYDLFDADENTPFKTIKQAYYALARRHHPDKNGDQEYFKVINNAFQLIQEHRRRRDN”, the “soluble fraction (log2)” value is -0.246. As for “HMPTTNIRAFRLREADPESVKEALSMVMPKTSIYVDARTKSVLVVGLLDELARAAEIVALIDQP”, the “soluble fraction (log2)” value was -0.79. As to “HMGGAVQIAEQIAARIKDGALRPGELLPPVRQLAAELEVNPNTVASAYARLRDAGLVATRGRAGTVVLEPP”, the “soluble fraction (log2)” value is -0.172. The same measure for “HMGKIINMSKVKQVLRLHTQGVSNRRIALDLGLYKGTVNSYIRKIKDHGYDIAEVLKLDDPVLESKLFA”: -0.227; for “HMQKDAYVPDIISKLKSSRMIVVEGTIYPLLTRLKNTGLLSYRWEESLQGPPRKYYSITEQG”: 0.112. Next, “HMRIEDTMDYINKIKEKLKNNGGVITSKEFTRSNIPTIYLTRMVETGELIRIDRGIYINSSG”: -0.538. Regarding “HMSIGPQMAGRRVLSGDLIARLEAFEGTVVLGRGVAREDALLIATQAGHVRWEPASRRLWVDSTA”, the “soluble fraction (log2)” value is -0.458. As to “HMVEPLIVRNFSINYADIDKLETKIKDYISNSDKSGVNRGRVTSDTRTNMLIVTETASKLAQVEQLLKALD”, the “soluble fraction (log2)” value is -0.181. Take “HMARVSGIDLPKNKRGYIGLTYIYGIGRSTALHILNSAGVDPEKKVHEWNDDETTAIRNIINAEIKVEGAL”: the “soluble fraction (log2)” value was -0.645.

With “HMNYAVTAARRESILNAALEIFGKSGYNGSSVKQVALAVGMTEAGVLHHFGTKSNLLIEVLRV”, the “soluble fraction (log2)” value is not below 0.62. As for “HMVELRDGSLPLARGSVGDLVAEVQRKLGVAADGIFGPQTERAVRAFQARAGLASDGIVGPLTWSALFGA”, the “soluble fraction (log2)” value is -0.282.

The values above are taken from the domain aggregation screens of Martell et al. (2025).
